Legend:
[1] = target: T1, MSRV complete ENV protein (ENV-T), recombinant from E. coli (MSRV (Multiple Sclerosis associated …)); assay: cell-based or functional assay
T1 chain: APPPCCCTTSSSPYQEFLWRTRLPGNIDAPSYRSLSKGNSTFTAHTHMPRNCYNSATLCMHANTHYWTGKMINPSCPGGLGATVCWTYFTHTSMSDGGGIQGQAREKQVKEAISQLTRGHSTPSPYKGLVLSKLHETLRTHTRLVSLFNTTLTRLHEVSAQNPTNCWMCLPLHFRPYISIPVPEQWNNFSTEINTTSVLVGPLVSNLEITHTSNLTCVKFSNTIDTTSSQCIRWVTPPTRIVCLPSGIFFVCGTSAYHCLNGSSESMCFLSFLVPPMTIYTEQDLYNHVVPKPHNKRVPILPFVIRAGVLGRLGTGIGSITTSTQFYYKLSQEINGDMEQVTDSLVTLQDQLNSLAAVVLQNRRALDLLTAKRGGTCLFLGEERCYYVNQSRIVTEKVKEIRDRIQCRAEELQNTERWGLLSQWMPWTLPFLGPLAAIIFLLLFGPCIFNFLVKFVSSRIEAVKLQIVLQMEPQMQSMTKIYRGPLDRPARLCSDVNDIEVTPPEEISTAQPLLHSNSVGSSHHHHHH

[2] = target: T2, MSRV ENV surface domain fragment (ENV-SU), recombinant from E. coli (MSRV (Multiple Sclerosis associated …)); assay: cell-based or functional assay
T2 chain: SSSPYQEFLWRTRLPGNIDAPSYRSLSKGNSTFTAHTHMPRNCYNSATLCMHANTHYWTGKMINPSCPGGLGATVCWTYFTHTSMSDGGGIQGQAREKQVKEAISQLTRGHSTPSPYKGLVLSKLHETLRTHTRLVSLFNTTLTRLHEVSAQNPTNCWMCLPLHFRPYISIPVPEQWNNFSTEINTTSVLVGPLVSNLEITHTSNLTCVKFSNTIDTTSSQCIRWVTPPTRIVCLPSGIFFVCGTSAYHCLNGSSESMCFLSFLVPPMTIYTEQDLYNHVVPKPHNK

B1: Humanized GNb AC1 IgG4 antibody (stabilized, H2 S241P heavy chain and VK3 light chain) (antibody, V domains shown)
VH: QVQLVQSGAEVKKPGSSVKVSCKASGYTFTDYEMHWVRQAPGQGLEWIGAVAPETGGTAYNQKFKGRATITADKSTSTAYMELSSLRSEDTAVYYCTSTVVPFAYWGQGTLVTVSS
VL: QIQLTQSPSSLSASVGDRVTITCSASSSVSYMYWYQQKPGKAPKAWIYRTSNLASGVPSRFSGSGSGTDYTLTISSLQPEDFATYYCQQYQSLPLTFGGGTKVEIKR
B1 was tested, and the “IL-6 at 24 h in PBMC culture with ENV-T 0.1 ug/ml, MAb ratio 10/1 (no antibody: 4363)” value [1] was 2910 and the “IFN-g at 72 h in PBMC culture with ENV-SU 0.5 ug/ml, MAb ratio 10/1 (no antibody: 336)” value [2] was 46.

From US20110243962A1 (GENEURO, published 2011)
